Columns and labels:
pspf_ecoli pspF [1] = target: pspf_ecoli pspF (UniProt P37344)
pspf_ecoli pspF [2] = target: pspf_ecoli pspF (UniProt P37344); remark: listed apart in the source

Chain of pspf_ecoli pspF (P37344 whole entry): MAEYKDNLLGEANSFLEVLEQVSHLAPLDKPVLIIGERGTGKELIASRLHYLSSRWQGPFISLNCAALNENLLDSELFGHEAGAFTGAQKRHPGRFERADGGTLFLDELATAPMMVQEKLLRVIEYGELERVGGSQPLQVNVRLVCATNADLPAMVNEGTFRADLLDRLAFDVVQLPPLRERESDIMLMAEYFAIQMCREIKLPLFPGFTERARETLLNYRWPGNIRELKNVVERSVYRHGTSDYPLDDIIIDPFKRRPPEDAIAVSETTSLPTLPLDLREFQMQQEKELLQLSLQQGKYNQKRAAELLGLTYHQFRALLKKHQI

Substance | effect of a mutation on the interaction (pspf_ecoli pspF [1]) | effect of a mutation on the interaction (pspf_ecoli pspF [2])
Phage shock protein A (Escherichia coli (strain K12)) (from UniProt P0AFM6) R59E | with no effect | –
Phage shock protein A (Escherichia coli (strain K12)) (from UniProt P0AFM6) E37A | decreasing interaction strength | with no effect

From IntAct's records for PubMed 26235546
